This is an account of results in paper PMC7181051, “Probing the Protein-Protein Interaction between the ATRXADD Domain and the Histone H3 Tail” (Molecules, 2020).

“And” between values parts separate entries of the source, which are not always exact repeats. Equal entries are not always repeated.

In assay [1] the target is ATRXADD-His (His-tagged ATRX ADD domain) (UniProt P46100). The experiment in a line: AlphaScreen or HTRF; competition, Ni-NTA kit: ATRXADD-His (625 nM), H3_(1-15)K9me3-biotin (94 nM), 20 μg/mL of each bead, unlabeled peptide added; HEPES buffer (50 mM HEPES, 100 mM NaCl, 0.1% Triton X-100, 0.1% BSA); 1 hour, room temperature, dark.
Assay [2] has as its target Histone H3 (Homo sapiens) (UniProt P68431). The conditions noted are these: cited from earlier work.
Assay [3] addresses Histone H3 H3 tail peptide (Homo sapiens) (UniProt P68431). The note with it: cited from earlier work.
Assay [4] has as its target Histone H3 1-15 (Homo sapiens) (UniProt P68431). The experiment in a line: ITC. The note with it: cited from earlier work.
In assay [5] the target is ATRXADD-His (His-tagged ATRX ADD domain) (UniProt P46100). The experiment in a line: AlphaScreen or HTRF; direct signal, Nickel Chelate (Ni-NTA) kit: H3_(1-15)K9me3-biotin on streptavidin beads, ATRXADD-His on Ni-NTA beads; 20 μg/mL of each bead.

In general, IC50 refers to the concentration that gives 50% inhibition. In assay [1], “H3_(1-15)K9me1 peptide (from UniProt P68431 2-16)” had an IC50 greater than 10 µM.

As usually defined, the Kd is a measure of binding affinity in units of concentration. Regarding ATRX ADD (from UniProt P46100), the Kd in assay [2] was greater than 80 µM; in assay [3], greater than 80 µM; in assay [4] it was 0.385 µM and 2.7 µM. “H3_(1-15)K9me0 peptide (from UniProt P68431 2-16)”: the IC50 in assay [1] was greater than 10 µM. For the substance “H3_(1-15)K9me3-biotin peptide (biotin label at the C-terminus) (from UniProt P68431 2-16)”, the AlphaScreen signal in assay [5] worked out at 1.25e+06.
